Reference: patent US20200024322A1 (Eli Lilly, published 2020)
Numbered stars: 1 amine (or outer) side, 2 acyl side, 3 side chain; on linkers, the order of the positions; unused ones are H or OH. Square brackets hold non-standard residues; d marks the D form. Side chains are listed from the residue outwards. Ends that are not written are not given here. * marks the point of attachment. C20 diacid = O=C(O)CCCCCCCCCCCCCCCCCCC(=O)*; γGlu = O=C(O)[C@H](CCC(=O)[*:2])N[*:1]; αMeL = CC(C)C[C@](C)(N)C(=O)O; αMeK = C[C@](N)(CCCCN)C(=O)O; Dab = NCC[C@H](N)C(=O)O; AEEA = NCCOCCOCC(=O)O; Aib = CC(C)(N)C(=O)O

B1: Example 206 (peptide)
peptide: YXEGTXTSDXSIXLDEKAQXEFIXYLIEGGPSSGAPPPS
modifications: Aib2; αMeF(2F)6; 4Pal10; αMeL13; K17((2-[2-(2-Amino-ethoxy)-ethoxy]-acetyl)2-CO-(CH2)18-CO2H); Aib20; D-Glu24; C-terminal NH2
B2: Example 207 (peptide)
peptide: B1 peptide
modifications: Aib2; αMeF(2F)6; 4Pal10; αMeL13; K17((2-[2-(2-Amino-ethoxy)-ethoxy]-acetyl)2-(εK)-CO-(CH2)18-CO2H); Aib20; D-Glu24; C-terminal NH2
B3: Example 17 (peptide)
peptide: H[Aib]EGTFTSDYSILLDKIAQK([AEEA-AEEA-γGlu-C20 diacid])AFIEYLLE[Aib]GPSSG-NH2
modifications: N-terminus assumed
SMILES: CC[C@H](C)[C@H](NC(=O)[C@H](CCCCN)NC(=O)[C@H](CC(=O)O)NC(=O)[C@H](CC(C)C)NC(=O)[C@H](CC(C)C)NC(=O)[C@@H](NC(=O)[C@H](CO)NC(=O)[C@H](Cc1ccc(O)cc1)NC(=O)[C@H](CC(=O)O)NC(=O)[C@H](CO)NC(=O)[C@@H](NC(=O)[C@H](Cc1ccccc1)NC(=O)[C@@H](NC(=O)CNC(=O)[C@H](CCC(=O)O)NC(=O)C(C)(C)NC(=O)[C@@H](N)Cc1c[nH]cn1)[C@@H](C)O)[C@@H](C)O)[C@@H](C)CC)C(=O)N[C@@H](C)C(=O)N[C@@H](CCC(N)=O)C(=O)N[C@@H](CCCCNC(=O)COCCOCCNC(=O)COCCOCCNC(=O)CC[C@H](NC(=O)CCCCCCCCCCCCCCCCCCC(=O)O)C(=O)O)C(=O)N[C@@H](C)C(=O)N[C@@H](Cc1ccccc1)C(=O)N[C@H](C(=O)N[C@@H](CCC(=O)O)C(=O)N[C@@H](Cc1ccc(O)cc1)C(=O)N[C@@H](CC(C)C)C(=O)N[C@@H](CC(C)C)C(=O)N[C@@H](CCC(=O)O)C(=O)NC(C)(C)C(=O)NCC(=O)N1CCC[C@H]1C(=O)N[C@@H](CO)C(=O)N[C@@H](CO)C(=O)NCC(N)=O)[C@@H](C)CC
B4: Example 15 (peptide)
peptide: H[Aib]EGTFTSDYSILLDKK([AEEA-AEEA-γGlu-C20 diacid])AQ[Aib]AFIEYLLE[Aib]GPSSGAPPPS-NH2
modifications: N-terminus assumed
SMILES: CC[C@H](C)[C@H](NC(=O)[C@H](Cc1ccccc1)NC(=O)[C@H](C)NC(=O)C(C)(C)NC(=O)[C@H](CCC(N)=O)NC(=O)[C@H](C)NC(=O)[C@H](CCCCNC(=O)COCCOCCNC(=O)COCCOCCNC(=O)CC[C@H](NC(=O)CCCCCCCCCCCCCCCCCCC(=O)O)C(=O)O)NC(=O)[C@H](CCCCN)NC(=O)[C@H](CC(=O)O)NC(=O)[C@H](CC(C)C)NC(=O)[C@H](CC(C)C)NC(=O)[C@@H](NC(=O)[C@H](CO)NC(=O)[C@H](Cc1ccc(O)cc1)NC(=O)[C@H](CC(=O)O)NC(=O)[C@H](CO)NC(=O)[C@@H](NC(=O)[C@H](Cc1ccccc1)NC(=O)[C@@H](NC(=O)CNC(=O)[C@H](CCC(=O)O)NC(=O)C(C)(C)NC(=O)[C@@H](N)Cc1c[nH]cn1)[C@@H](C)O)[C@@H](C)O)[C@@H](C)CC)C(=O)N[C@@H](CCC(=O)O)C(=O)N[C@@H](Cc1ccc(O)cc1)C(=O)N[C@@H](CC(C)C)C(=O)N[C@@H](CC(C)C)C(=O)N[C@@H](CCC(=O)O)C(=O)NC(C)(C)C(=O)NCC(=O)N1CCC[C@H]1C(=O)N[C@@H](CO)C(=O)N[C@@H](CO)C(=O)NCC(=O)N[C@@H](C)C(=O)N1CCC[C@H]1C(=O)N1CCC[C@H]1C(=O)N1CCC[C@H]1C(=O)N[C@@H](CO)C(N)=O
B5: Example 16 (peptide)
peptide: H[Aib]EGTFTSDYSILLDKK([AEEA-AEEA-γGlu-C20 diacid])AQ[Aib]AFIEYLIE[Aib]GPSSGAPPPS-NH2
modifications: N-terminus assumed
SMILES: CC[C@H](C)[C@H](NC(=O)[C@H](Cc1ccccc1)NC(=O)[C@H](C)NC(=O)C(C)(C)NC(=O)[C@H](CCC(N)=O)NC(=O)[C@H](C)NC(=O)[C@H](CCCCNC(=O)COCCOCCNC(=O)COCCOCCNC(=O)CC[C@H](NC(=O)CCCCCCCCCCCCCCCCCCC(=O)O)C(=O)O)NC(=O)[C@H](CCCCN)NC(=O)[C@H](CC(=O)O)NC(=O)[C@H](CC(C)C)NC(=O)[C@H](CC(C)C)NC(=O)[C@@H](NC(=O)[C@H](CO)NC(=O)[C@H](Cc1ccc(O)cc1)NC(=O)[C@H](CC(=O)O)NC(=O)[C@H](CO)NC(=O)[C@@H](NC(=O)[C@H](Cc1ccccc1)NC(=O)[C@@H](NC(=O)CNC(=O)[C@H](CCC(=O)O)NC(=O)C(C)(C)NC(=O)[C@@H](N)Cc1c[nH]cn1)[C@@H](C)O)[C@@H](C)O)[C@@H](C)CC)C(=O)N[C@@H](CCC(=O)O)C(=O)N[C@@H](Cc1ccc(O)cc1)C(=O)N[C@@H](CC(C)C)C(=O)N[C@H](C(=O)N[C@@H](CCC(=O)O)C(=O)NC(C)(C)C(=O)NCC(=O)N1CCC[C@H]1C(=O)N[C@@H](CO)C(=O)N[C@@H](CO)C(=O)NCC(=O)N[C@@H](C)C(=O)N1CCC[C@H]1C(=O)N1CCC[C@H]1C(=O)N1CCC[C@H]1C(=O)N[C@@H](CO)C(N)=O)[C@@H](C)CC
B6: Example 14 (peptide)
peptide: Y[Aib]EGTFTSDYSILLDKIAQK([AEEA-AEEA-γGlu-C20 diacid])EFIQYLLE[Aib]GPSSGAPPPS-NH2
modifications: N-terminus assumed
SMILES: CC[C@H](C)[C@H](NC(=O)[C@H](CCCCN)NC(=O)[C@H](CC(=O)O)NC(=O)[C@H](CC(C)C)NC(=O)[C@H](CC(C)C)NC(=O)[C@@H](NC(=O)[C@H](CO)NC(=O)[C@H](Cc1ccc(O)cc1)NC(=O)[C@H](CC(=O)O)NC(=O)[C@H](CO)NC(=O)[C@@H](NC(=O)[C@H](Cc1ccccc1)NC(=O)[C@@H](NC(=O)CNC(=O)[C@H](CCC(=O)O)NC(=O)C(C)(C)NC(=O)[C@@H](N)Cc1ccc(O)cc1)[C@@H](C)O)[C@@H](C)O)[C@@H](C)CC)C(=O)N[C@@H](C)C(=O)N[C@@H](CCC(N)=O)C(=O)N[C@@H](CCCCNC(=O)COCCOCCNC(=O)COCCOCCNC(=O)CC[C@H](NC(=O)CCCCCCCCCCCCCCCCCCC(=O)O)C(=O)O)C(=O)N[C@@H](CCC(=O)O)C(=O)N[C@@H](Cc1ccccc1)C(=O)N[C@H](C(=O)N[C@@H](CCC(N)=O)C(=O)N[C@@H](Cc1ccc(O)cc1)C(=O)N[C@@H](CC(C)C)C(=O)N[C@@H](CC(C)C)C(=O)N[C@@H](CCC(=O)O)C(=O)NC(C)(C)C(=O)NCC(=O)N1CCC[C@H]1C(=O)N[C@@H](CO)C(=O)N[C@@H](CO)C(=O)NCC(=O)N[C@@H](C)C(=O)N1CCC[C@H]1C(=O)N1CCC[C@H]1C(=O)N1CCC[C@H]1C(=O)N[C@@H](CO)C(N)=O)[C@@H](C)CC
B7: Example 12 (peptide)
peptide: Y[Aib]EGTFTSDYSILLDKIAQK([AEEA-AEEA-γGlu-C20 diacid])AFIEYLIEGGPSSGAPPPS-NH2
modifications: N-terminus assumed
SMILES: CC[C@H](C)[C@H](NC(=O)[C@H](CCCCN)NC(=O)[C@H](CC(=O)O)NC(=O)[C@H](CC(C)C)NC(=O)[C@H](CC(C)C)NC(=O)[C@@H](NC(=O)[C@H](CO)NC(=O)[C@H](Cc1ccc(O)cc1)NC(=O)[C@H](CC(=O)O)NC(=O)[C@H](CO)NC(=O)[C@@H](NC(=O)[C@H](Cc1ccccc1)NC(=O)[C@@H](NC(=O)CNC(=O)[C@H](CCC(=O)O)NC(=O)C(C)(C)NC(=O)[C@@H](N)Cc1ccc(O)cc1)[C@@H](C)O)[C@@H](C)O)[C@@H](C)CC)C(=O)N[C@@H](C)C(=O)N[C@@H](CCC(N)=O)C(=O)N[C@@H](CCCCNC(=O)COCCOCCNC(=O)COCCOCCNC(=O)CC[C@H](NC(=O)CCCCCCCCCCCCCCCCCCC(=O)O)C(=O)O)C(=O)N[C@@H](C)C(=O)N[C@@H](Cc1ccccc1)C(=O)N[C@H](C(=O)N[C@@H](CCC(=O)O)C(=O)N[C@@H](Cc1ccc(O)cc1)C(=O)N[C@@H](CC(C)C)C(=O)N[C@H](C(=O)N[C@@H](CCC(=O)O)C(=O)NCC(=O)NCC(=O)N1CCC[C@H]1C(=O)N[C@@H](CO)C(=O)N[C@@H](CO)C(=O)NCC(=O)N[C@@H](C)C(=O)N1CCC[C@H]1C(=O)N1CCC[C@H]1C(=O)N1CCC[C@H]1C(=O)N[C@@H](CO)C(N)=O)[C@@H](C)CC)[C@@H](C)CC
B8: Example 18 (peptide)
peptide: H[Aib]EGTFTSDYSI[αMeL]LDKK([Dab-AEEA-Dab-AEEA-C20 diacid])AQ[αMeK]AFIQYLLA[Aib]GPSSGAPKPS-NH2
B9: Example 19 (peptide)
peptide: H[Aib]EGTFTSDYSI[αMeL]LDKK([Dab-AEEA-Dab-AEEA-C20 diacid])AQ[αMeK]AFIQYLLA[Aib]GPSSGAPPPS-NH2

What was measured:
human GLP-1 receptor = target: T1, human GLP-1 receptor (human, UniProt P43220 24-463); experiment: SPA, [125I]-GLP-1 displacement, hGLP-1R membranes
T1 construct: whole, on cells; Used as crude membranes of stably transfected HEK293 cells; also called hGLP1R; hGLP-1R

human GIP receptor = target: T2, human GIP receptor (human, UniProt P48546 22-466); experiment: SPA, [125I]-GIP displacement, hGIPR membranes
T2 construct: whole, on cells; Used as crude membranes of stably transfected CHO cells; also called hGIPR
T2 sequence (looked up): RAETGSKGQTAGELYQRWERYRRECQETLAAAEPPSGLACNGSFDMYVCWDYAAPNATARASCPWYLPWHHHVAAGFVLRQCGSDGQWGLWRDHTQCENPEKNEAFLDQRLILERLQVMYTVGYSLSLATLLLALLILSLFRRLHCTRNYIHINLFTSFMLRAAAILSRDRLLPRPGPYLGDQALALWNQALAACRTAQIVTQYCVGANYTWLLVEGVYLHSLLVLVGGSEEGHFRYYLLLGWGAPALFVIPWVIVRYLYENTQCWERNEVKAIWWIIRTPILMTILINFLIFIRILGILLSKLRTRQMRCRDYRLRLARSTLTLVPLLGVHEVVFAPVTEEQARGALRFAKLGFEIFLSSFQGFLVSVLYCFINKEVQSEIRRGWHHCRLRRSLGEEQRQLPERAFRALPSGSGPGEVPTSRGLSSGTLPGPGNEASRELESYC

human glucagon receptor = target: T3, human glucagon receptor (human, UniProt P47871 26-477); experiment: SPA, [125I]-Gcg displacement, hGcgR membranes
T3 construct: whole, on cells; Used as crude membranes of stably transfected HEK293 cells; also called hGcgR; hGLcgR
T3 sequence (P47871 26-477): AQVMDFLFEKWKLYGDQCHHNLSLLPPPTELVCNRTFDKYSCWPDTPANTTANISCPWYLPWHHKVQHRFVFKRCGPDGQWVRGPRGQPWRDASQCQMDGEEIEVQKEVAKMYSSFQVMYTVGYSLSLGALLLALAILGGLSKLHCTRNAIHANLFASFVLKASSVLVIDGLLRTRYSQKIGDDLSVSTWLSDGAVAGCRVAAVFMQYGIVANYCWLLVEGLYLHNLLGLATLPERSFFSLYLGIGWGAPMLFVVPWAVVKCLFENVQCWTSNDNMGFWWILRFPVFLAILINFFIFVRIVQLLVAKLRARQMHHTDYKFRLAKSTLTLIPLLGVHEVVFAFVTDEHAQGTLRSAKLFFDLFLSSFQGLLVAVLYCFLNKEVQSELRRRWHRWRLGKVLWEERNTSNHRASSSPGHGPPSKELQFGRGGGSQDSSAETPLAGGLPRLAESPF

Binder	Ki (human GLP-1 receptor) [nM]	Ki (human GIP receptor) [nM]	Ki (human glucagon receptor) [nM]
B1	5.27	0.0814	176
B2	1.37	0.0786	74.2
B3	7.63	0.606	261
B4	2.19	0.284	130
B5	2.78	0.0841	371
B6	29.6	0.0494	160
B7	12.9	0.167	684
B8	0.319	0.0798	50.1
B9	0.24	0.0518	60.5
